These are literature values, as cited in PMC12355045.

This series addresses hemoglobin αβ dimer (Homo sapiens) (UniProt P69905).

The Kd is the equilibrium constant for the complex coming apart. Consider “hemoglobin αβ dimer (from UniProt P69905)”, for which the dissociation constant (Kd) is 1 µM.
